Data set [1] has as its target T1, partial mouse PEPI (1180 bp of the ORF) in fusion with the activation domain of GAL4 (GAL4-AD), 21 two-hybrid … (yeast; mouse, UniProt P28798 197-589, limits assumed).
T1 construct: EPIs G and F absent; also called proepithelin
T1 sequence: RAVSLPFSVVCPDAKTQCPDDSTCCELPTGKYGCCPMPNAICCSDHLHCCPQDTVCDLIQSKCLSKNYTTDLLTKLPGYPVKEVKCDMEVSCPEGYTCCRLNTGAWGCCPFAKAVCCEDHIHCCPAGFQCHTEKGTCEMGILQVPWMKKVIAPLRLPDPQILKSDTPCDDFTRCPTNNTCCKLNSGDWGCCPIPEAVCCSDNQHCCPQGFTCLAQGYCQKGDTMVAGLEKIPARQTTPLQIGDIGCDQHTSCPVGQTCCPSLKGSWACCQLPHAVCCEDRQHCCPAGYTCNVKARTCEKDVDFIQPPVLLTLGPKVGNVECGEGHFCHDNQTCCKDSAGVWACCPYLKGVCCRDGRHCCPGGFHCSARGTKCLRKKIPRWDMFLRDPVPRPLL
The data set is described as follows: yeast two-hybrid, growth without histidine and LacZ expression.

The target of data set [2] is T2, PEPI in human bronchoalveolar lavage (BAL) fluid (human, UniProt P28799 18-593).
T2 construct: Endogenous protein, immunoprecipitated with antiserum against human PEPI; also called proepithelin
T2 sequence (looked up): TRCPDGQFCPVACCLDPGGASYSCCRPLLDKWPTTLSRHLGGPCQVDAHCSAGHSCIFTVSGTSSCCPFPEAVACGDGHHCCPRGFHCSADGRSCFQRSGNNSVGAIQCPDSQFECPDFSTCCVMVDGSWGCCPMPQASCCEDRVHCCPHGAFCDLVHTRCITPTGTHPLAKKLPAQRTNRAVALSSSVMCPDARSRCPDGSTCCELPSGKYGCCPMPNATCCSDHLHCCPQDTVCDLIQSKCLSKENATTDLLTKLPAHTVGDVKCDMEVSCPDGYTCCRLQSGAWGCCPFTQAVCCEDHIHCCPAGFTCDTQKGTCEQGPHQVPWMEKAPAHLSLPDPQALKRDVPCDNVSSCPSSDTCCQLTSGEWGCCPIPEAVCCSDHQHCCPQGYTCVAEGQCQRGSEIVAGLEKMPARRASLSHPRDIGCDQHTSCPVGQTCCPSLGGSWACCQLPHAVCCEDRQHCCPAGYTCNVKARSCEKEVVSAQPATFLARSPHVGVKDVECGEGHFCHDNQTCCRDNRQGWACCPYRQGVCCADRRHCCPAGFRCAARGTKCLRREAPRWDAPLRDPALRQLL
The data set can be described thus: immunoprecipitation of PEPI from BAL fluids of two individuals, anti-SLPI blot. The protocol: BAL fluids were collected from healthy adult subjects according to an institutional review board-approved protocol following informed consent. The fluids (45 ml each) were concentrated to 0.5 ml in a Centriprep (Millipore) with 10 kDa cut-off before immunoprecipitation with antiserum against human PEPI and western blotting with antisera against human SLPI or human PEPI.
To test if a SLPI-PEPI complex exists in vivo normal human bronchoalveolar lavage (BAL) fluid samples were examined because both SLPI and PEPI are strongly expressed in airway epithelium (Abe et al., 1991; Daniel et al., 2000). PEPI was immunoprecipitated from the BAL fluids collected from two individuals, and SLPI was detected in the PEPI immunoprecipitates (FIG. 2D). Thus, the SLPI-PEPI complex is physiologic.

For data set [3], the target named is T3, recombinant human SLPI (Amgen) (human, UniProt P03973 26-132).
T3 construct: Obtained from Amgen; also called SLPIwt; wild type human SLPI
The data set is described as follows: reciprocal co-immunoprecipitation of pure recombinant proteins (anti-FLAG M2 and anti-SLPI), western blot. An excerpt:
PEPI and SLPI were transiently expressed in HEK293 or COS-1 cells. FLAG-tagged PEPI (aa 18-593) was expressed from pCMVI-FLAG and SLPI constructs from pcDNA3.1 (Invitrogen). SLPI constructs included mouse full length (aa 1-131), mouse N-terminal domain (aa 1-80), mouse C-terminal domain (aa 1-25/81-131), and human full-length (aa 1-131). Three days following co-transfection via SuperFect reagent (Qiagen), conditioned media were immunoprecipitated with FLAG M2 antibody (Sigma), separated by reducing SDS-PAGE and western blotted with anti-SLPI antibody (Jin et al., 1997). For in vitro immunoprecipitation assays, recombinant human PEPI or EPI (FLAG-tagged) and SLPI (5 pmol each) were incubated in 10 mM Tris-HCl (pH 7.5), 150 mM NaCl at 37° C. for 30 min before immunoprecipitation with anti-FLAG M2 antibody and western blotting with anti-SLPI antibody or the reverse.
Next, experiments were performed to ascertain which part of PEPI binds to SLPI (for the order of EPIs in PEPI, see FIG. 1A). EPIs G and F were absent in the partial PEPI sequences isolated as SLPI-binding proteins in yeast (FIG. 1A) and thus were dispensable for the interaction. […] When FLAG-tagged recombinant human EPI A or EPI B was incubated with recombinant human SLPI at an equimolar ratio (FIG. 2E) or at a molar ratio of A (or B):SLPI::1:5 (not shown), SLPI was not detected in EPI immunoprecipitates or vice versa. […]
(A western blot detects proteins with antibodies after separation by electrophoresis.)

In data set [4] the target is T4, recombinant human SLPI (Amgen).
T4 chain: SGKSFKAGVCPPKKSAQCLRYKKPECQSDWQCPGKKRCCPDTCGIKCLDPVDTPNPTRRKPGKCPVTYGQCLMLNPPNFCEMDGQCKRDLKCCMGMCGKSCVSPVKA

The target of data set [5] is T5, recombinant mouse SLPI (Amgen).
T5 chain: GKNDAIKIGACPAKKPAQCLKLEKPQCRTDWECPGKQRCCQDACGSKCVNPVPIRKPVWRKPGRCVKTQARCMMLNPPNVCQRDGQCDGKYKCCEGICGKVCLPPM

B1: lamin C (other, UniProt P02545-2 67-230, looked up)
chain: EEVVSREVSGIKAAYEAELGDARKTLDSVAKERARLQLELSKVREEFKELKARNTKKEGDLIAAQARLKDLEALLNSKEAALSTALSEKRTLEGELHDLRGQVAKLEAALGEAKKQLQDEMLRRVDAENRLQTMKEELDFQKNIYSEELRETKRRHETRLVEID
notes: Non-specific control in the yeast two-hybrid test
In the case of B1, the binding result in data set [1] is given as “no binding”.

B2: SLPI in human bronchoalveolar lavage (BAL) fluid (other, UniProt P03973 26-132, looked up)
chain: SGKSFKAGVCPPKKSAQCLRYKKPECQSDWQCPGKKRCCPDTCGIKCLDPVDTPNPTRRKPGKCPVTYGQCLMLNPPNFCEMDGQCKRDLKCCMGMCGKSCVSPVKA
notes: Endogenous protein
As to B2, the binding result in data set [2] is “binds”.

B3: recombinant human EPI A (aa 281-337) with an N-terminal FLAG-6xHis tag, from insect cells (other)
chain: DVKCDMEVSCPDGYTCCRLQSGAWGCCPFTQAVCCEDHIHCCPAGFTCDTQKGTCEQ
notes: the construct is stated as aa 281-337; also called epithelin A; not shown: N-terminal FLAG-6xHis tag
On to B3, for which the binding result in data set [3] is “no binding”.

B4: recombinant human EPI B (aa 206-261) with an N-terminal FLAG-6xHis tag, from insect cells (other)
chain: VMCPDARSRCPDGSTCCELPSGKYGCCPMPNATCCSDHLHCCPQDTVCDLIQSKCL
notes: also called epithelin B; not shown: N-terminal FLAG-6xHis tag
As for B4, the binding result in data set [3] is “no binding”.

B5: human neutrophil elastase (Sigma) (protein)
chain: IVGGRRARPHAWPFMVSLQLRGGHFCGATLIAPNFVMSAAHCVANVNVRAVRVVLGAHNLSRREPTRQVFAVQRIFENGYDPVNLLNDIVILQLNGSATINANVQVAQLPAQGRRLGNGVQCLAMGWGLLGRNRGIASVLQELNVTVVTSLCRRSNVCTLVRGRQAGVCFGDSGSPLVCNGLIHGIASFVRGGCASGLYPDAFAPVAQFVNWIDSIIQ
Take B5: the “cleavage of PEPI by elastase (anti-FLAG western blot)” value was “human and mouse SLPI did block the cleavage of human PEPI by elastase, human SLPI being the more potent” in data set [4]; “human and mouse SLPI did block the cleavage of human PEPI by elastase, human SLPI being the more potent” in data set [5].

For the origin of these results see patent US7427595 (CORNELL RESEARCH FOUNDATION, dated 2008).
